Laboratory results as given in patent US20230151091A1 (NEW YORK UNIVERSITY, published 2023).
Substitutions are numbered along the chain they refer to.

How the values were obtained:
[1] = target: T1, human MuSK (human, UniProt O15146 24-495); assay: Biacore T200, off rate at pH 5.5 against pH 7.4
T1 construct: Recombinant protein coated on ELISA plates (R&D Systems cat. 10189-MK) or on the Biacore chip; also called human muscle-specific tyrosine protein kinase; full length human MuSK
T1 sequence: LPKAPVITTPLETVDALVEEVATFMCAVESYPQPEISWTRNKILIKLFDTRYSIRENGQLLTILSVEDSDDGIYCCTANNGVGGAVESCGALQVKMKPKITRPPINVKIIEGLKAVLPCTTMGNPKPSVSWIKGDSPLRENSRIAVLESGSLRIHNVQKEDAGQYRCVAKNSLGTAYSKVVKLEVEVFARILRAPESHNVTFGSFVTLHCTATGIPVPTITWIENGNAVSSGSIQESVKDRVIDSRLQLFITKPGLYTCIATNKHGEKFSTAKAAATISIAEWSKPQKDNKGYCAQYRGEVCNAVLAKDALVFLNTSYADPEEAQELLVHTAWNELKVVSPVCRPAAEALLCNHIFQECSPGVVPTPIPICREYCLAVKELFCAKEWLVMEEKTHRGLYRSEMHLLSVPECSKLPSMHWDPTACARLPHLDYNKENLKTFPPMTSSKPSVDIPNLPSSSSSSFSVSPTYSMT
Procedure: (§1) In order to study pH dependent binding of the antibodies described herein to MuSK, a Biacore T200 was used. Briefly, a CMS chip was coated with human and mouse MuSK (200RU) and 22.2 nM of Fab was applied and kinetic parameters calculated. Association was done at pH7.4, dissociation was done at pH 7.4 and also at pH 5.5. The following Fabs were tested, X2, X2m4, X3, X9, X17, 3B2 and 3B2g2m1 (Table 10 and FIG. 23). […] Binding affinity at pH 5.5 is very low, resulting in a rapid dissociation at endosomal pH allowing 3B2g2m1 to recycle.

[2] = target: T2, mouse MuSK (mouse, UniProt Q61006 22-494, limits assumed); assay: Biacore T200, off rate at pH 5.5 against pH 7.4
T2 construct: Coated on ELISA plates or on the Biacore chip; also called full length mouse MuSK; mouse MuSK (in house produced in HEK293 cells)
T2 sequence (looked up): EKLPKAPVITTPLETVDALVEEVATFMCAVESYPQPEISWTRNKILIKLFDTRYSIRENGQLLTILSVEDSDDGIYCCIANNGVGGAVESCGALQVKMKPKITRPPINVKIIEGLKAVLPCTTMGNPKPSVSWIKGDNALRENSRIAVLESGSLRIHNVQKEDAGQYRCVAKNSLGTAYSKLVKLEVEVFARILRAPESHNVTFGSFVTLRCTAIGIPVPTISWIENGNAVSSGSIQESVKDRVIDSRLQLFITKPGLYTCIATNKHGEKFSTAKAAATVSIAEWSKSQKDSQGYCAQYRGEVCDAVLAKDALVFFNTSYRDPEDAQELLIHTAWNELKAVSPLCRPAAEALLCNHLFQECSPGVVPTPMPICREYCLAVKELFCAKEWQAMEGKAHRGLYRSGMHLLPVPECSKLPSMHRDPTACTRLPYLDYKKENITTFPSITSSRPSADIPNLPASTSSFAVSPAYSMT
Procedure: as §1

[3] = target: T1, human MuSK; assay: Biacore T200, MuSK on chip (200RU), 22.2 nM Fab, dissociation pH 5.5
Procedure: as §1

[4] = target: T2, mouse MuSK; assay: as above
Procedure: as §1

[5] = target: T1, human MuSK; assay: Biacore T200, MuSK on chip (200RU), 22.2 nM Fab, dissociation pH 7.4
Procedure: as §1

[6] = target: T2, mouse MuSK; assay: as above
Procedure: as §1

B1: X2m4 Fab (Fab, V domains shown)
VH: EVQLVESGGGLVQPGGSLRLSCAASGFTVSSSSIHWVRQAPGKGLEWVASISSSYGSTSYADSVKGRFTISADTSKNTAYLQMNSLRAEDTAVYYCARSEGDRYVSGYSGLDYWGQGTLVTVSS
VL: DIQMTQSPSSLSASVGDRVTITCRASQSVSSAVAWYQQKPGKAPKLLIYSASSLYSGVPSRFSGSRSGTDFTLTISSLQPEDFATYYCQQSGVWLITFGQGTKVEIK
notes: Fab format
Ratio pH 5.5/7.4 of off rate [1]: 0.7
Ratio pH 5.5/7.4 of off rate [2]: 1.2
koff [3]: 0.00586 s⁻¹
koff [4]: 0.00416 s⁻¹
koff [5]: 0.00867 s⁻¹
koff [6]: 0.00337 s⁻¹

B2: X9 Fab (Fab, V domains shown)
VH: EVQLVESGGGLVQPGGSLRLSCAASGFTFSSSSIHWVRQAPGKGLEWVASIYSSSGSTYYADSVKGRFTISADTSKNTAYLQMNSLRAEDTAVYYCARSGGEFYITSYYGMDYWGQGTLVTVSS
VL: B1 VL with G92S, V93S, W94S
notes: Fab format
Ratio pH 5.5/7.4 of off rate [1]: 1.4
Ratio pH 5.5/7.4 of off rate [2]: 7.1
koff [3]: 0.00083 s⁻¹
koff [4]: 0.00105 s⁻¹
koff [5]: 0.00059 s⁻¹
koff [6]: 0.00015 s⁻¹

B3: 3B2g2m1 Fab (Fab, V domains shown)
VH: EVQLLESGGGLVQPGGSLRLSCAASGFTFSDYGMSWVRQAPGKGLEWVSAIPWSGGSTYYKESVKGRFTISRDNSKNTLYLQMNSLRAEDTAVYYCAKRSGRIAFGALDAWGQGTLVTVSS
VL: QTVVTQEPSFSVSPGGTVTLTCGLSSGSVTSSNYPDWYQQTPGQAPRTLIYSTDSRHSGVPDRFSGSILGNKAALTITGAQADDESDYYCGLYSYSGSKNYVFGGGTKLTVL
notes: Fab format
Ratio pH 5.5/7.4 of off rate [1]: 6.1
Ratio pH 5.5/7.4 of off rate [2]: 8.9
koff [3]: 0.0288 s⁻¹
koff [4]: 0.0679 s⁻¹
koff [5]: 0.00472 s⁻¹
koff [6]: 0.00766 s⁻¹
